Source: article PMC11203719, “Mts1 (S100A4) and Its Peptide Demonstrate Cytotoxic Activity in Complex with Tag7 (PGLYRP1) Peptide” (International Journal of Molecular Sciences, 2024)

Target: T1, Tag7 (PGLYRP1) protein, recombinant (UniProt O88593)
T1 sequence (O88593 1-182, species assumed, looked up): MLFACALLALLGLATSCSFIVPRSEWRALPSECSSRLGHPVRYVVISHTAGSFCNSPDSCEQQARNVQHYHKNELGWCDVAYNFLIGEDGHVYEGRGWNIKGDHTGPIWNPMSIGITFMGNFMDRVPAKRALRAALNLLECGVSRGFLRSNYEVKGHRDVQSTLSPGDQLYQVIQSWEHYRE
Assay: MST; Tag7 labelled with Alexa Fluor 488 (200 nM), preincubated 20 min in the dark at room temperature with 16 concentrations of M7; Monolith NT.115, 10% IR laser power

Kd: 2.96 nM
Binder: ELPSFLGKRTDEAAFQK [M7 peptide of Mts1 (S100A4)]
